Experiments:
[1] = target: T1, CD3 epsilon/gamma heterodimer (Homo sapiens, UniProt P07766;P09693 P07766:23-126,P09693:23-116); experiment: SPR; steady state; kinetic 2.3 nM (Table 6); settings: tags: C-terminal human IgG1 Fc fusion, AcroBiosystems; chain copies: heterodimer 1:1 (inferred); label: 5'-biotin-TEG
Experimental: (§1) Binding affinity measurements were performed using a BIAcore T200 instrument (GE Healthcare). To analyze interactions between aptamers and CD3 proteins, 1000 Resonance Units of biotinylated aptamers were immobilized on Series S Sensor chips SA (GE Healthcare) according to manufacturer's instructions (GE Healthcare). SELEX buffer was used as the running buffer. The interactions were measured in the “Single Kinetics Cycle” mode at a flow rate of 30 μl/min and by injecting different concentrations of human CD3 ε/γ, CD3 ε/δ, IgG1 Fc and mouse CD3 ε/δ (Sino Biological). The highest protein concentration used was 100 nM. Other concentrations were obtained by 3-fold dilution. All kinetic data of the interaction were evaluated using the BIAcore T200 evaluation software. Table 3 below provides a summary of KD values obtained from surface plasmon resonance measurements.

[2] = target: T2, CD3 epsilon/delta heterodimer (Homo sapiens, UniProt P07766;P04234 P07766:23-126,P04234:22-105); experiment: SPR; steady state; kinetic 2.7 nM (Table 6); settings: tags: C-terminal human IgG1 Fc fusion, AcroBiosystems; chain copies: heterodimer 1:1 (inferred); label: 5'-biotin-TEG
T2 sequence (P07766 23-126, stated change not applied, chain 1 of 2): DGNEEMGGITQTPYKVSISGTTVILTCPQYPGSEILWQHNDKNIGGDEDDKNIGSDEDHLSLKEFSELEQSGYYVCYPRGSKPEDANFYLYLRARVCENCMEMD
T2 sequence (P04234 22-105, stated change not applied, chain 2 of 2): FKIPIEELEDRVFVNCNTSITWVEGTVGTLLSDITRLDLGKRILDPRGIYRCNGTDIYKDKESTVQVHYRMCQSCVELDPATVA
Experimental: as §1

[3] = target: T1, CD3 epsilon/gamma heterodimer; experiment: SPR; steady state; kinetic 3.8 nM (Table 6); settings: tags: C-terminal human IgG1 Fc fusion, AcroBiosystems; chain copies: heterodimer 1:1 (inferred); label: 5'-biotin-TEG
Experimental: as §1

[4] = target: T2, CD3 epsilon/delta heterodimer; experiment: SPR; steady state; kinetic 3.7 nM (Table 6); settings: tags: C-terminal human IgG1 Fc fusion, AcroBiosystems; chain copies: heterodimer 1:1 (inferred); label: 5'-biotin-TEG
Experimental: as §1

[5] = target: T3, IgG1 Fc (counter target) (Homo sapiens, UniProt P01857-1 P01857-1:100-330); experiment: SPR; no interaction observed; settings: tags: AcroBiosystems; chain copies: 2; label: 5'-biotin-TEG
Experimental: as §1

[6] = target: T1, CD3 epsilon/gamma heterodimer; experiment: SPR; steady state; kinetic fit suboptimal; settings: tags: C-terminal human IgG1 Fc fusion, AcroBiosystems; chain copies: heterodimer 1:1 (inferred); label: 5'-biotin-TEG
Experimental: as §1

[7] = target: T2, CD3 epsilon/delta heterodimer; experiment: SPR; steady state; kinetic 23.3 nM (Table 6); settings: tags: C-terminal human IgG1 Fc fusion, AcroBiosystems; chain copies: heterodimer 1:1 (inferred); label: 5'-biotin-TEG
Experimental: as §1

[8] = target: T1, CD3 epsilon/gamma heterodimer; experiment: SPR; NA; settings: tags: C-terminal human IgG1 Fc fusion, AcroBiosystems; chain copies: heterodimer 1:1 (inferred); label: 5'-biotin-TEG
Experimental: as §1
(§2) Further, it was observed that compared to the aptamer CELTIC_1 (CD3-1 in Table 1), CELTIC_1s (CD3-1s) bound to the CD3 proteins more strongly. Table 4 below provides a summary of KD values obtained from another set of surface plasmon resonance measurements. It includes KD values of the first five aptamers with and without flanking regions.

[9] = target: T2, CD3 epsilon/delta heterodimer; experiment: SPR; NA; settings: tags: C-terminal human IgG1 Fc fusion, AcroBiosystems; chain copies: heterodimer 1:1 (inferred); label: 5'-biotin-TEG
Experimental: as §1, §2

[10] = target: T3, IgG1 Fc (counter target); experiment: SPR; no interaction observed; aptamer also NA for CD3; settings: tags: AcroBiosystems; chain copies: 2; label: 5'-biotin-TEG
Experimental: as §1, §2

[11] = target: T1, CD3 epsilon/gamma heterodimer; experiment: SPR; steady state; kinetic 0.2 pM (Table 8); settings: tags: C-terminal human IgG1 Fc fusion, AcroBiosystems; chain copies: heterodimer 1:1 (inferred); label: biotin; G4 predicted
Experimental: (§3) Binding affinity measurements with the most interesting anti-CD3 aptamers derived from the core sequence were performed using a BIAcore T200 instrument (GE Healthcare) as already described in Example 4. To analyze interactions between aptamers and CD3 proteins, biotinylated aptamers were immobilized at a lower density than in Example 4 (100-500 RU) on Series S Sensor chips SA (GE Healthcare) according to manufacturer's instructions (GE Healthcare). Mouse and Cynomolgus CD3 ε/δ were purchased from AcroBiosystems. For human proteins, the highest concentration used was 100 nM and 1 μM for mouse and cynomolgus antigens. Other concentrations were obtained by 3-fold dilutions.
Table 9 below provides a summary of KD values obtained from surface plasmon resonance measurements performed with human CD3 ε/γ and mouse and cynomolgus CD3 ε/δ. […] In these conditions, 3′-3′ deoxy-thymidine-modified versions of the latest four aptamers performed equally well. All these sequenced-optimized aptamers were able to bind the murine and cynomolgus CD3 ε/δ isoforms confirming the cross-specificity of the CD3 aptamers already observed in Examples 3 and 5.

[12] = target: T2, CD3 epsilon/delta heterodimer; experiment: SPR; kinetic; settings: tags: C-terminal human IgG1 Fc fusion, AcroBiosystems; chain copies: heterodimer 1:1 (inferred); label: biotin; G4 predicted
Experimental: as §3
(§4) Table 8 below provides a summary of KD values obtained from surface plasmon resonance measurements. […] Variants of the core sequence identified in cell binding assays (CELTIC_core_12, CELTIC_core_24, CELTIC_core_29, CELTIC_core_40 and CELTIC_core_42) were all confirmed to have better affinities than the unmodified aptamer with human CD3 ε/γ. As already observed in Example 4, the affinities were in general slightly lower with CD3 ε/δ which is a consequence of the SELEX strategy that included more rounds on the CD3 ε/γ isoform. None of these sequences did bind to the Fc region of human IgG1.

[13] = target: T3, IgG1 Fc (counter target); experiment: SPR; NA; settings: tags: AcroBiosystems; chain copies: 2; label: biotin; G4 predicted
Experimental: as §3, §4

[14] = target: T2, CD3 epsilon/delta heterodimer; experiment: SPR; steady state; 62.2 nM (Table 3); kinetic 3.4 nM (Table 6); settings: tags: C-terminal human IgG1 Fc fusion, AcroBiosystems; chain copies: heterodimer 1:1 (inferred); label: 5'-biotin-TEG
Experimental: as §1

[15] = target: T1, CD3 epsilon/gamma heterodimer; experiment: SPR; steady state; 43.6 nM (Table 3); kinetic 2.8 nM (Table 6); settings: tags: C-terminal human IgG1 Fc fusion, AcroBiosystems; chain copies: heterodimer 1:1 (inferred); label: 5'-biotin-TEG
Experimental: as §1

[16] = target: T2, CD3 epsilon/delta heterodimer; experiment: SPR; steady state; kinetic fit suboptimal; settings: tags: C-terminal human IgG1 Fc fusion, AcroBiosystems; chain copies: heterodimer 1:1 (inferred); label: 5'-biotin-TEG
Experimental: as §1

[17] = target: T1, CD3 epsilon/gamma heterodimer; experiment: SPR; steady state; kinetic 9.5 pM (Table 6), 304 pM (Table 8); 99 nM steady state (Table 9); settings: tags: C-terminal human IgG1 Fc fusion, AcroBiosystems; chain copies: heterodimer 1:1 (inferred); label: 5'-biotin-TEG
[18] = target: T2, CD3 epsilon/delta heterodimer; experiment: SPR; steady state; kinetic 8.2 nM (Table 6), 900 pM (Table 8); settings: tags: C-terminal human IgG1 Fc fusion, AcroBiosystems; chain copies: heterodimer 1:1 (inferred); label: 5'-biotin-TEG
Experimental: as §1

[19] = target: T2, CD3 epsilon/delta heterodimer; experiment: SPR; steady state; kinetic 3.2 nM (Table 6); settings: tags: C-terminal human IgG1 Fc fusion, AcroBiosystems; chain copies: heterodimer 1:1 (inferred); label: 5'-biotin-TEG
Experimental: as §1

[20] = target: T1, CD3 epsilon/gamma heterodimer; experiment: SPR; steady state; kinetic 3.9 nM (Table 6); settings: tags: C-terminal human IgG1 Fc fusion, AcroBiosystems; chain copies: heterodimer 1:1 (inferred); label: 5'-biotin-TEG
Experimental: as §1

[21] = target: T2, CD3 epsilon/delta heterodimer; experiment: SPR; steady state; kinetic 41.1 nM (Table 6); settings: tags: C-terminal human IgG1 Fc fusion, AcroBiosystems; chain copies: heterodimer 1:1 (inferred); label: 5'-biotin-TEG
Experimental: as §1

[22] = target: T1, CD3 epsilon/gamma heterodimer; experiment: SPR; same value in Table 3; settings: tags: C-terminal human IgG1 Fc fusion, AcroBiosystems; chain copies: heterodimer 1:1 (inferred); label: 5'-biotin-TEG
Experimental: as §1, §2

[23] = target: T2, CD3 epsilon/delta heterodimer; experiment: SPR; same value in Table 3; settings: tags: C-terminal human IgG1 Fc fusion, AcroBiosystems; chain copies: heterodimer 1:1 (inferred); label: 5'-biotin-TEG
Experimental: as §1, §2

[24] = target: T1, CD3 epsilon/gamma heterodimer; experiment: SPR; steady state; kinetic 4.1 nM (Table 6); settings: tags: C-terminal human IgG1 Fc fusion, AcroBiosystems; chain copies: heterodimer 1:1 (inferred); label: 5'-biotin-TEG
Experimental: as §1

[25] = target: T2, CD3 epsilon/delta heterodimer; experiment: SPR; steady state; kinetic 3.4 nM (Table 6); settings: tags: C-terminal human IgG1 Fc fusion, AcroBiosystems; chain copies: heterodimer 1:1 (inferred); label: 5'-biotin-TEG
Experimental: as §1

T1 sequence (P07766 23-126, chain 1 of 2): as the sequence (P07766 23-126, stated change not applied, chain 1 of 2) above
T1 sequence (P09693 23-116, chain 2 of 2): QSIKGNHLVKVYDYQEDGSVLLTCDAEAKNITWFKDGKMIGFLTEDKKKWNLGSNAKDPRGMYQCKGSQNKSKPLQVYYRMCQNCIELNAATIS

B1: CELTIC_22s (printed CELTIC_CD3_22) (ssDNA)
DNA: CGACCACAGGGGTTTGGCTTCGGGACTGGCGGTGGGCACT
[1]
  Kd: 162 nM
[2]
  Kd: 164 nM

B2: CELTIC_9s (ssDNA)
DNA: GCATCGAAATGGGGTTGGCACCGGGCCTGGCGAATTGGAT
[3]
  Kd: 47.3 nM
[4]
  Kd: 60.5 nM
[5]
  binding result: no binding

B3: CELTIC_21s (ssDNA)
DNA: GGTCGGGTGCTACTGAGCGATTGGCTTTCCGGACTGGGGA
[6]
  Kd: 155 nM
[7]
  Kd: 405 nM
[5]
  binding result: no binding

B4: CELTIC_2 (ssDNA)
DNA: TAGGGAAGAGAAGGACATATGATGAGGGGTTTGGCATCGGGCCTGGCGCCATTCAAGCTATGCTTGACTAGTACATGACCACTTGA
[8]
  binding result: no binding
[9]
  binding result: no binding
[10]
  binding result: no binding

B5: CELTIC_core_40 (ssDNA)
DNA: GGGTTTGGCATCGGGTCTGGC
modifications: 5'-HEG
[11]
  Kd: 129 nM
[12]
  Kd: 0.0052 nM
[13]
  binding result: no binding

B6: CELTIC_21 (ssDNA)
DNA: TAGGGAAGAGAAGGACATATGATGGTCGGGTGCTACTGAGCGATTGGCTTTCCGGACTGGGGATTGACTAGTACATGACCACTTGA
[14]
  Kd: 49.8 nM
[15]
  Kd: 56.4 nM

B7: CELTIC_6s (ssDNA)
DNA: AAGGGATTGGCGTCGGGCCTGGCGTAAGGAGGCTATGCTC
[6]
  Kd: 287 nM
[16]
  Kd: 168 nM
[5]
  binding result: no binding

B8: CELTIC_19s (ssDNA)
DNA: TACCGCGGGGATTGGCTCCGGGCCTGGCGTCGTAATCTGA
[17]
  Kd: 104 nM
[18]
  Kd: 150 nM
[5]
  binding result: no binding

B9: CELTIC_11s (ssDNA)
DNA: GATGGAGGGTTTGGCGGTGGGCCTGGCAAGTTATCTCATA
[19]
  Kd: 138 nM
[20]
  Kd: 94 nM
[5]
  binding result: no binding

B10: CELTIC_3s (ssDNA)
DNA: GCGTAAGGGTTTGGCAGCGGGCCTGGCGGAACGCGTGTAT
[6]
  Kd: 156 nM
[21]
  Kd: 409 nM
[5]
  binding result: no binding

B11: CELTIC_3 (ssDNA)
DNA: TAGGGAAGAGAAGGACATATGATGCGTAAGGGTTTGGCAGCGGGCCTGGCGGAACGCGTGTATTTGACTAGTACATGACCACTTGA
[22]
  Kd: 65.4 nM
[23]
  Kd: 86.5 nM

B12: CELTIC_5s (ssDNA)
DNA: CGGCAGGGGTTTGGCTCCGGGTCTGGCGAACTGGCTGAGA
[6]
  Kd: 182 nM
[16]
  Kd: 120 nM
[5]
  binding result: no binding

B13: CELTIC_1 (ssDNA)
DNA: TAGGGAAGAGAAGGACATATGATCCGGGTGGGGGTTTGGCACCGGGCCTGGCGCAGGGATTCGTTGACTAGTACATGACCACTTGA
[8]
  binding result: no binding
[9]
  binding result: no binding
[10]
  binding result: no binding

B14: CELTIC_4s (ssDNA)
DNA: GGAGTGGAGTATTCCGGGTTTGGCATCGGGCCTGGCGAAG
[24]
  Kd: 117 nM
[25]
  Kd: 144 nM
[5]
  binding result: no binding

— patent US20220251562, “Anti-CD3 Aptamers for Use in Cell Targeting and Labeling” (Ixaka France, published 2022)
